The results in this text go back to article PMC11289419, “Modular RNA motifs for orthogonal phase separated compartments”.

One series addresses T1, P22 N peptide (bacteriophage P22, UniProt P04891 14-30).
T1 chain: NAKTRRHERRRKLAIER
In words: fluorescence microscopy recruitment to RNA condensate; 25% aptamer strand; Multi-stranded: 40 mM HEPES, 100 mM KCl, 500 mM NaCl, 5 uM strands (1.25 uM aptamer strand), 70 C melt, 12 h hold (50 C), imaged after 20 C; co-transcriptional: T7 transcription buffer with 10 mM NaCl, 30 mM MgCl2, 2 mM spermidine, 37 C; pH not given. To be noted: tags: 6-FAM (stated for single-stranded nanostar experiments); four-arm nanostar of 4 strands, 5' palindromic sticky end GAGCUC on S2-S4; boxB hairpin 5' of the S1 sticky end.

The target in series [1] is streptavidin (fluorescently labeled) (UniProt P22629 25-183). The series is described as above. To be noted: protein: commercial; tags: fluorescent label; chain copies: 4; four-arm nanostar of 4 strands, 5' palindromic sticky end GCGC on S2-S4; aptamer 5' of the S1 sticky end.
streptavidin (fluorescently labeled), sequence (P22629 25-183): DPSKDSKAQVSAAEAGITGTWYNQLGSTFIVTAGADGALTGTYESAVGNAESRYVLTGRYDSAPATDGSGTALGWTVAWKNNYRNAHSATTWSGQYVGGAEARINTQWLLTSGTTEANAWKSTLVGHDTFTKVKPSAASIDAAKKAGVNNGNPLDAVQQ

B1: 4m5 nanostar with P22 boxB (structured_RNA)
RNA 1: GGUGCGCUGACAAAGCGCGCCGAGCUCAGAGUCUCUGGUCGCCAAGCUUAUCGGACACUG
RNA 2: GAGCUCAAGUAGGCACAUCAGCAAGGCGACCAGAGACUC
RNA 3: GAGCUCAUGCGUGGAGACAACGAAGCUGAUGUGCCUACU
RNA 4: GAGCUCACAGUGUCCGAUAAGCAACGUUGUCUCCACGCA
B1: the binding result with P22 N peptide was “binds”.

B2: 4m3 nanostar with streptavidin aptamer (structured_RNA)
RNA 1: GAUGCGGCCGCCGACCAGAAUCAUGCAAGUGCGUAAGAUAGUCGCGGGUCGGCGGCCGCAUCGCGCAUCCACGGCGUGUCGCAAGACGCCGACGCGUCG
RNA 2: GCGCAGUCGGGAUAUACCGGAAGCGACACGCCGUGGA
RNA 3: GCGCAAGUCCACAGUGGCGCAACCGGUAUAUCCCGAC
RNA 4: GCGCACGACGCGUCGGCGUCAAGCGCCACUGUGGACU
In the case of B2, the binding result in series [1] is “binds”.
